The nature of this data set: label from the status in PepcDB records.
As to “MQTKEKLASLSYLAVKSLLYELNLTPKPGLVDCHNNGAHNDMDFYTFLDSILSLSPFFKKYIEVGWLYHNESPQYLFNQLRKLGIEAEAAMFSATERVNTHKGINFSFALLLGATGSYLAKHIELIQEKRRFMPQDSLTICHLAGEMSMHLIQNDLSHVETKRNLTYGEKLFLQYGLKGLRGEASQGYPSLTQKALPFFRNELLKKQDIQISQLKLLLYLMTFIEDSNIIHRGGIKSWKKVQQEAQTLLEKDLPPYQLKEQLNSYNQILTDRHLSPGGAADLLSLTLYFSFLEQLI”, the protein production entry was “failed”.

Take “MGFMIEHWDFSTPMATQETTTAEHIQPNHWYHCERLHPDIRSWLEDNHVPRATVDHLLADESRPSFHPLDDDNFMLILRGINMNENASPEDMLSIRILYFQGALISTRKIPSRAIMEIRQALAEHKGPKSLASLLNQIIEGLNGKIDLYLDTIEETLNEFDVNDESTYNHIAAQKALISIKRFIRPQQYAIRDLIESESELVTSRPHQYRFAHNNITRINETIEFYLGEVALFQDEIKHNRDEKTNKNSYLFTLVATIFLPTSFLTGLL”: the protein production result is “not failed”.

As to “MQSDHKEKIAILVDVQNVYYTCREAYRSNFDYNQFWYVATQEKEVVSAKAYAIASNDPKQRQFHHILRGVGFEVMLKPYIQRRDGSAKGDWDVGITLDAIEIAPDVDRVILVSGDGDFSLLVERIQQRYNKKVTVYGVPRLTSQTLIDCADNFVAIDDDFLL”, the protein production result was “not failed”.

Regarding “MYVIIMGAGRIGTLVAKMLENSGHDVAIIEMNKDRARAVSDIVSGLVIEGDATDQNILESANVRNADAFVALTGKDDANILACILAKHLNPRIMTILRITDPRKKKIFEEVKDLKKYFDVVVSPEDIAANYIFRVVITPGFDRVLLPREGAEIIQFHIDENSKVAGKAVKDLNLPRDSLIIAIYDEKGNLIIPSGETILPKRGTVVVFAKDSALKEIKKIMEEKVEESEE”, the protein production entry was “failed”.

For “LYLAGIGQYAALLEAGFARARSAEETVRLLVTSYIDWVVANPDWARFILHSRGRVEAGELGERLRADNQAHFARIHAALAGYRAEGLFREMPDDCFASVVIGPAHDLARQWLAGRTRVALADCRELLAQVAWDSVRAA”, the protein production result is given as “not failed”.

“MAVPRWAVRDLTQISSARELSLRLEQARNDFRATVGSICYFNASARTPGQFDDEYIMTDQSLTYVYADGVTAQSCAMNRLLPSSSSNFGAAATAIPPWLLDPPRLNRLLREGTDEGGLVNYYEGPHKNAFFLAIMRSCIFVRPGADEINGVSYDFFARSGNYTEQLEHHHHHH”: the protein production entry is recorded as “failed”.

Take “MMTQQELEKYLWGAATTLRGTIDAGDYKQYIFPLMFFKRICDVYDEEFENALAESDGDLEYAAFAENHHFQVPKGAHWNDVRETTTNIGLALQNAMRAIEKANPDTLEGIFGDASWTNKERLSDAMLTNLIEHYSEQTLNLKNVPDDKLGNAYEYLIKEFADDSGHTAAEFYTNRTVVKLMTMIMAPQPGESVYDPTCGSGGLLLNCALHLKDEGKEYRTLKLYGQEINLLTSAIARMNMFMHGIEEFDIVRGNTLSNPGLLENDELKKFNVILANPPYSIKSWDRKAFESDPYGRNVWGTPPQGCADYAFQQHIQKSLDLGNGRSISLWPHGILFRDAETAMRRKMIEQDQVECVIGLGPNLFYNSPMEACLLITKTNKIESKKDKILFINAVKEVRQDKNIGYLDQVHIDKIFNAYNKFENEDSFAVLVDKQEVLDKKANMAINLYIRPDSLVSSEEACFATAYQEWQQSSGDLKQSMEKLFKELV”: the protein production entry is listed as “not failed”.

On to “MTYQQAGRIAVIKRILGWVIFIPSVLSTLISVLKFMYEHSEKKPGIDAVMMDFAHVMIEMMRFNTPFLNFFWYNSPLPDFHHSLNIGFWIIFILVFVGMALQASGARMARQAKFLREGIEDQLILEQAKGADGLTREQLAERIVVPRHTILVQYFPLYVLPVIVIVIGYFFFSLLGFL”, for which the protein production entry is given as “failed”.

In the case of “MFLRGNPDKTEPAFDARPLKTKEIARFGEGTPLPWLDRHALACVDASGDLRDVLKSTALAITLFCACTGPAMAYAPDETPIVIGRSTLLESKVLGQLRRINVHTPADYATSGKTYPVLFLLDGGEREDFPHIAGLAQLGELSWTYREMIVVGIEGIDRRHDLTHPSTVAQEQADFPTLGGSAAYRRFLSEELKPWVAARYRTNGESAIMGESLAGLFVIETLLKQPTLFDAYIAASPSLWWSDQALARGAPADIARWPALGSRKLYLTIGDEGSTMQEGVDKVMAAIGAAKPAGLTLVYDPMPHEQHSTIYHPAALKAFRTVWPGPRPD”, the protein production entry is “failed”.

As to “MSDRIASEKLRSKLMSADEAAQFVNHGDKVGFSGFTGAGYPKALPTAIANRAKEAHGAGNDYAIDLFTGASTAPDCDGVLAEADAIRWRMPYASDPIMRNKINSGSMGYSDIHLSHSGQQVEEGFFGQLNVAVIEITRITEEGYIIPSSSVGNNVEWLNAAEKVILEVNSWQSEDLEGMHDIWSVPALPNRIAVPINKPGDRIGKTYIEFDTDKVVAVVETNTADRNAPFKPVDDISKKIAGNFLDFLESEVAAGRLSYDGYIMQSGVGNVPNAVMAGLLESKFENIQAYTEVIQDGMVDLIDAGKMTVASATSFSLSPEYAEKMNNEAKRYRESIILRPQQISNHPEVIRRVGLIATNGLIEADIYGNVNSTNVSGSRVMNGIGGSGDFTRNGYISSFITPSEAKGGAISAIVPFASHIDHTEHDVMVVISEYGYADLRGLAPRERVAKMIGLAHPDYRPLLEEYYARATSGDNKYMQTPHDLATAFDFHINLAKNGSMKA”, the protein production result was “not failed”.

On to “MDRATEPVLFFFMAFFWALNYVMVKFAYAYDLSSSILLMRVLYASIFSSLIFIRQIKLPKSPLEHLKVFILANLNITGFFSLWFFGETGVSAAVTSIVIYSYPILATAFSYLFLGDRFGAMKTLGLILGFAGLVIIFIRSINVENLVDLIMLLVAAISWAIGTVFYRKYLLGYDSAGLNTLQLLYALPVVLLISLFTGGINIGLLQLKFNLIMIYMGSFGTAIAYFIYLYLYRKYKVSSISAYFFLVPAISVVLAAVLLKEPISALTIAGFAVMSAGIFLSGSFK”, for which the protein production result is given as “failed”.

“MAPLGGAPRLVLLFSGKRKSGKDFVTEALQSRLGADVCAVLRLSGPLKEQYAQEHGLNFQRLLDTSTYKEAFRKDMIRWGEEKRQADPGFFCRKIVEGISQPIWLVSDTRRVSDIQWFREAYGAVTQTVRVVALEQSRQQRGWVFTPGVDDAESECGLDNFGDFDWVIENHGVEQRLEEQLENLIEFIRSRL”: the protein production entry is listed as “failed”.

Turning to “MFTLALPTPPPLAQARGSGLSAAFAAGAVIPVGDTPGGIALTPTGTRAYVANHGSNTVSVLDTVTDTVIDTIATGGGPNAVAFSPDGTRAYVTVADDGLVSVIDTATNTIVTDIAVGAGATGVAVTPDGSRVYVTLQSSDTVGVIDTATNTVTASIPAAGTPLGLVITPDGTRAYVACLFANAVRVIDTATNTVIATIPVGPVPILLAVSPGGTHVYVTNVGNSTVSVIDTATSAVIATVGVSAQPRFAAVSPDGFHVYVANSGPDTVSVIDTATQTVVENIGVGDGPTGIALLPDGTRAYVTNAVAGTVGVMATTVIPDQGSTAGGTTVTLTGHHLANATAVHFGTAQAVITANTATSMTVTAPAGSGAVPVTVTTAGGTGTLGHFYYVPVPALSGINPAAGPVAGSDDEIVLTGRHLAGAIDVYFGTTRAVIQTVSDNQVTVRAAGAPAPGGTAVTVITAGGSAGGLSYTYLDPSTVTGVSPDSGPTTGGTEVTITGTGLAGTEQVTFNGIPAAFTVVSDSTLTATTPPSGAAGPVGVTVTGPGGAPAGTFTYVSEPDI”, the protein production entry was “failed”.

In the case of “MYLPTHFKQENQAELFDLIEHHPLGTLIVMHADGLEVNHIPFELDRLHLPAGILRGHIAKANPLASLLSEPQSAYVIFQAEQHYISPNWYPGKQEHHRVVPTWNYRVVHATGQLSVIEDQKYLRGVLARLTRQHEADQPAPWRLSDAPADFIEQQLEKIMAIEFNIESIIGKFKLSQNRSQADVAGVIAALNELEPQIANSIHKFYPK”, the protein production result is recorded as “failed”.

Take “MRHLITSLQNHNGQLKGEVQRYKRKYKDTSTDNLKLRQELADALATLEGNKLQAATGAAGEEIKQENSTGVKEENSNNVSASGQTNQTNSGNDTNVAIKEENHISAEDEADDEASGKDVKDGIKQEKLSSGDAAAAEKKDSPGPGNSTSSATNSVPVKNEKDSKDGVKGKDVKAVESETV”: the protein production result is given as “failed”.

For “MWYDYRFCAYPDRTGVAAEAERHIDIHRQAYNHTRYEYNALDTDEDNIGSAYQHQKRLTEWKDEWSVFSEVHSKALQKTVERFYDNLSNLSEKKQNGHKVGWLKWKPPREYQSVTYSQSGFELKNTSGRTATLWLSKIGDIPIRYHRPIPDNATIKEVTLKKETTGEWYVTFGLEVEDTTLPEKPDVDDLDAEDCVGIDLGITNYIYTSDGDSVDWLNLSDEYERLRREQRNLSRKEHRSNNWKKQRREVAKVKRRIKRKVEDFQHKLTTWLVKTYDAVFVEDLNVSGMLQQRGNARNKQDAAWRGFINMLEYKGDLYGTHVVQVNPAGTTKECAECGVETEKPLWVREHSCPSCGFEADRDANASYNVLSRGLRELGLGQAEVTPVETATAVETDGGRSSSVPASRVIETGSLGVVRKTESSVMTRDEVPRTT”, the protein production result is given as “failed”.

With “MQTKKNEIWVGIFLLAALLAALFVCLKAANVTSIRTEPTYTLYATFDNIGGLKARSPVSIGGVVVGRVADITLDPKTYLPRVTLEIEQRYNHIPDTSSLSIRTSGLLGEQYLALNVGFEDPELGTAILKDGDTIQDTKSAMVLEDLIGQFLYGSKGDDNKNSGDAPAAAPGNNETTEPVGTTK”, the protein production result is listed as “failed”.

Take “MMENPQQGLEMRSIVVAYYREQAVSTLVKTLIFIVTLLFIGRSFSEEKNYDMQQLSAQQAYENGRLLRAQFKNLAAREYLKYAADLGEPNAAYLYAMEVANYRTTIRTPPESQHYLLLAAQGGSRQAMRVLYQNGEWLRAAERSLWQQTYYDTLIELGSREPSQAAYELALFHQKDNPKLAQHYLTIAVEFEHPAALMLMAQQIEQGEGSYPMPGSRATEARKTYLKAAQTGYIPAIRNYIQLLENKGKYQDAYYWRQQAVQRGDLTSLVAMGGILSGQSEFYRFVEPDLKQAKAYFNRYLEVAGSDRLSHVYQNSQKQLLDISMQLNGHEKEIAEKIELQLENYQPFFNHDAYWDN”: the protein production result is reported as “failed”.

Take “MTTRRLALFDLDHTLLPLDSDYQWADFLARTGRAGDPAEARRRNDDLMERYNRGELTAEQAAEFMLGLLAAHSPVELAAWHEEFMRDVIRPSLTAQAVDVVRGHLAAGDLCALVTATNSFVTAPIARAFGVQHLIATDPEYRDGRYTGRIEGTPSFREGKVVRVNQWLAGMGLALGDFAESYFYSDSVNDVPLLEAVTRPIAANPSPGLREIAQARGWQVIDLFDHLEDAKS”: the protein production result is “not failed”.

As to “MWIGSVFMRKSFVISLLSAGILLAGCQAVNTTSGGAVGVERQQYMFSMLSTDEVNQMYAQSYQQTLGEASSKGVLDKSSADAKRVQAIANRLIAQAPKFRPDAAQWDWQVNVIKSDELNANCGPGGKIIVYTGLIDQLKLTDAEIAAVVGHEIAHALREHSREAMSKAYGVEMARQGAGAIFGLGQSSMAMADTVVNYAMTLPNSRANENEADLIGLELSARAGYDPNAAITLWNKMSKASEGAPPEFMSTHPASASRIASLQAAIPKVMPLYQAAAKP”, the protein production result is “failed”.

As for “MTKVIAITGKGGTGKTAVAALLIRSLSKKGQFILAVDADADTNLPETLGCENVKTIGDAKEFLQAEITKPRPDNPDMNKESVLQSKVYEIIEEMPGYDLLVMGRPEGSGCYCYVNNLLRGIMDKLVKNYDLVVIDAEAGLEHFSRKIIRDIDDLIVVTDASRRGFRTAERIHELVNELESNIGSIHVIANKVTDANREKLVKLAEELKLNLIGMIPLDPKIEEMDIKGIPLFEIPDDSVAAVEIENIVKKLGF”, the protein production entry is “failed”.

For “MTDAPLGRSAVYTILTTGYVGSTGPGVAATVSYVADGGRHVVFDPGMVASRDHILGPLAELGLGPDDITDVVLSHHHPDNTMNVGLFGRATVHDHKVEYLGDQWRNRDAEGYELTPSLRLIRTPGHSLEDITLLAGTDTGVVAFAGDLWWHSDGPADDPVAPDREVLRASRLRVLAAADLIVPGHGSPFKADITAPRLEHHHHHH”, the protein production result is “not failed”.

(Values after a protein production outcome set (Wang et al. 2014).)
